Substitutions are numbered along the chain they refer to.
B1: Chimeric huIgG1 k 18B3 (antibody, V domains shown)
VH: EVQLVESGGGLVKPGGSLKLSCAASGFTFSDYYMYWVRQTPEKRLEWVATISDGGIYTYYPDSVKGRFTISRDSAKNNLYLQMTSLKSDDTAMYYCVRGWDRYDSWFACWGQGTLVTVSA
VL: DIVMSQSPSSLVVSAGEKVTMTCKSSQSLLYSSNQKNYLAWYRQKPGQSPKLLIYWASTRESGVPDRFTGSGSGTDFTLTISSVKAEDLAVYYCQQYYRYPYTFGGGTKLEIKR
notes: also called ch18B3; 18B3 chim
B2: Mouse monoclonal 18B3 (antibody, V domains shown)
VH: B1 VH
VL: DIVMSQSPSSLVVSAGEKVTMTCKSSQSLLYSSNQKNYLAWYRQKPGQSPKLLIYWASTRESGVPDRFTGSGSGTDFTLTISSVKAEDLAVYYCQQYYRYPYTFGGGTKLEIK
notes: Mouse IgG1/k from hybridoma; also called m18B3; murine 18B3 mAb
B3: Humanized 18B3 B (H330-V1/L41-V1) (antibody, human IgG1, kappa, V domains shown)
VH: QVQLVESGGGVVQPGGSLRLSCAASGFTFSDYYMYWVRQAPGKGLEWVATISDGGIYKYYADSVKGRFTISRDSSKNTLYLQMNSLRAEDTAVYYCVRGWDRYDSWFACWGQGTTVTVSS
VL: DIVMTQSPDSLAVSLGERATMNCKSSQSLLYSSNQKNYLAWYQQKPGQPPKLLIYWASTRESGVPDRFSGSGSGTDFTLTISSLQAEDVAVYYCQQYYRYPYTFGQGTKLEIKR
notes: also called H-330/L-41; H330/L41
B4: Humanized 18B3 E (H330-V1/L228-V1) (antibody, human IgG1, kappa, V domains shown)
VH: B3 VH
VL: DIVMTQSPLSLPVTPGEPASMSCRSSQSLLYSSNQKNYLAWYLQKPGQSPQLLIYWGSTRESGVPDRFSGSGSGTDFTLKISRVEAEDVGVYYCQQYYRYPYTFGQGTKLEIKR
notes: also called H330/L228
B5: Humanized 18B3 D (H311-V1/L228-V1) (antibody, human IgG1, kappa, V domains shown)
VH: B3 VH with V11L, Q13K, V37I, K58I, S75A, T78S
VL: B4 VL
notes: also called H311/L228
B6: Humanized 18B3 A (H311-V1/L41-V1) (antibody, human IgG1, kappa, V domains shown)
VH: B3 VH with V11L, Q13K, V37I, K58I, S75A, T78S
VL: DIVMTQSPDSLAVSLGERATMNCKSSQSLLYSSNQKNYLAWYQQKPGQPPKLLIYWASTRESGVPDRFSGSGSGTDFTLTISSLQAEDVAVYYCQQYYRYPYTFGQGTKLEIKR
notes: also called H311/L41
B7: 18B3 H330-V1.2/L228-V1 (antibody, human IgG1, kappa, V domains shown)
VH: B3 VH with C109S
VL: B4 VL
notes: also called H-330/L-228 V1.2
B8: 18B3 H330-V1.2/L41-V1 (antibody, human IgG1, kappa, V domains shown)
VH: B3 VH with C109S
VL: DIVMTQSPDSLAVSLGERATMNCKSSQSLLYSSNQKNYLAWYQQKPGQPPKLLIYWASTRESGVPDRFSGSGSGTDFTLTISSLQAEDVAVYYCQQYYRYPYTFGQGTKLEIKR
notes: also called H-330/L-41 V1.2; H330C102S/L-41
B9: H-169/L-315 (antibody, human IgG1, kappa, V domains shown)
VH: QVQLVQSGAEVKKPGSSVKVSCKASGFTFSDYYMYWVRQAPGQGLEWVGTISDGGIYAYYAQKVQGRFTITRDSSTSTLYLELSSLRSEDTAVYYCVRGWDRYDSWFACWGQGTTVTVSS
VL: EIVMTQSPATLSVSPGERATMSCRASQSLLYSSNQKNYLAWYQQKPGQAPRLLIYWASTRETGIPARFSGSGSGTEFTLTISSLQSEDFAVYYCQQYYRYPYTFGQGTKLEIKR
B10: H-169/L-41 (antibody, human IgG1, kappa, V domains shown)
VH: B9 VH
VL: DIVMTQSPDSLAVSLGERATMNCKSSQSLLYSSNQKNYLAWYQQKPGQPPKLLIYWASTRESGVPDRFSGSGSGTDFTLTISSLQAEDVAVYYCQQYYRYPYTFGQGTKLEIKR
B11: H-311/L-315 (antibody, human IgG1, kappa, V domains shown)
VH: B3 VH with V11L, Q13K, V37I, K58I, S75A, T78S
VL: B9 VL
B12: H-169/L-228 (antibody, human IgG1, kappa, V domains shown)
VH: B9 VH
VL: B4 VL
B13: H-330/L-315 (antibody, human IgG1, kappa, V domains shown)
VH: B3 VH
VL: B9 VL

Assays:
recombinant human βIG-H3 [1] = target: T1, recombinant human βIG-H3 (human, UniProt Q15582 24-683); test: SPR single cycle kinetics, mAb captured via anti-human IgG (Fc) on CM5, hβIG-H3 5-100 nM as analyte, 1:1 model; SCK1 Fc2
T1 construct: Bought recombinant protein; also called rhβIG-H3; rhbIG-H3
T1 sequence (looked up): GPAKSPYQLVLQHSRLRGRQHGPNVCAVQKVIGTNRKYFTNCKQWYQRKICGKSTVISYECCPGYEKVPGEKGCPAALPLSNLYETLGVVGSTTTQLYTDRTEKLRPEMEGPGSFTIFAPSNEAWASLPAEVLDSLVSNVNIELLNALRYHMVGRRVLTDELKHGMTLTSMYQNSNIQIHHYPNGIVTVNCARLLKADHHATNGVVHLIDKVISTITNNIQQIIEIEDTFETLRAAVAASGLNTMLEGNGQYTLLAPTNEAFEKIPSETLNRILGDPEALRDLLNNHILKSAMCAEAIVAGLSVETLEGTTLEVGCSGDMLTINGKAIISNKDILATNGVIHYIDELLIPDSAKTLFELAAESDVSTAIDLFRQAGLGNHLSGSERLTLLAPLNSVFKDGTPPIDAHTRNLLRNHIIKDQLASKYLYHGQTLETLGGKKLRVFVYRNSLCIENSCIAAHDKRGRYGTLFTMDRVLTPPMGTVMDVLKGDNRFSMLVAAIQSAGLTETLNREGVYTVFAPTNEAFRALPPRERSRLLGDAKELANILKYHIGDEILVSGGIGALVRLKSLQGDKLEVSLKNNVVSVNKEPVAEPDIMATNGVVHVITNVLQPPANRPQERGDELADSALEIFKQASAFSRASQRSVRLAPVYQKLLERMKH
Experimental: (§1) Anti-Human IgG (Fc) antibody is chemically grafted on a CM5 sensorchip using amine coupling according to the Cytivia 22064888AF notice. Briefly, surface is first activated by injection of a NHS-EDC mixture. Then, several injections (3 on the 10 available on the kit) of Anti-Human IgG (25 μg/ml in immobilization buffer) adjusting the contact time are performed. Finally, the surfaces are deactivated with ethanolamine 1M pH 8.5.
(§2) A negative control Ab is immobilized on sensor flowcell 1 (Fc 1) and positive control (chimeric 18B3 mAB) on Fc 2. 18B3 variants Abs are immobilized on Fc3 and Fc4:
(§3) Injection of increasing concentrations (5; 10; 25; 50; 100 nM) of antigen (hβIG-H3) during 180 s is performed on each flowcell. Short dissociations are performed in RB between each antigen concentration. After injection of the highest antigen concentration (100 nM), a dissociation in RB is recorded during 3600 s. [0348] Three similar cycles with five injections of RB are carried out before the cycle of Antigen in order to perform double subtraction procedure (Blank run). [0349] Three similar cycles with five injection of RB and a dissociation time of 600 s are performed before the blank runs in order to stabilize the system (Startup run).

recombinant human βIG-H3 [2] = target: T1, recombinant human βIG-H3; test: SPR Biacore T200, antibody captured via anti-human IgG, rhbIG-H3 as analyte, 1:1 fit, mean of n=3
Experimental: (§4) The assays were conducted using Biacore T200 instrument. It was performed in 2 steps: [0324] The first step, called suitability test, was aiming at determining the optimal conditions to run the assay: here, best sensor chip and running buffer conditions are assessed to defined best signal/noise ratio. [0325] The second step is the run itself that was performed in triplicate to ensure reproducibility and robustness of the results.
(§5) For the first step, 2 sensors and various buffer conditions were assessed using the parental and Chimeric 18B3 mAbs as a reference. It was then defined that sensor Chip C1 was the most appropriate, and buffer containing 300 mM NaCl and 0.25 mg/mL BSA was reducing the non-specific binding and increased the signal.
(§6) Rate constants (kₐ, kd) and equilibrium dissociation constants (KD) of rhbIG-H3 interaction with six antibodies determined by SPR. Experimental data were fitted to a 1:1 binding model. Listed are mean values ±SD of n=3 independent experiments.

recombinant human βIG-H3 [3] = target: T1, recombinant human βIG-H3; test: direct ELISA on coated rhβIG-H3, anti-human IgG-HRP
recombinant human βIG-H3 [4] = target: T1, recombinant human βIG-H3; test: SPR single cycle kinetics, mAb captured via anti-human IgG (Fc) on CM5, hβIG-H3 5-100 nM as analyte, 1:1 model; SCK2 Fc2
Experimental: as §1, §2, §3

recombinant human βIG-H3 [5] = target: T1, recombinant human βIG-H3; test: SPR Biacore T200, antibody captured via anti-mouse IgG, rhbIG-H3 as analyte, 1:1 fit, mean of n=3
Experimental: as §4, §5, §6

recombinant human βIG-H3 [6] = target: T1, recombinant human βIG-H3; test: SPR single cycle kinetics, mAb captured via anti-human IgG (Fc) on CM5, hβIG-H3 5-100 nM as analyte, 1:1 model; SCK2 Fc4
Experimental: as §1, §2, §3

recombinant human βIG-H3 [7] = target: T1, recombinant human βIG-H3; test: SPR single cycle kinetics, mAb captured via anti-human IgG (Fc) on CM5, hβIG-H3 5-100 nM as analyte, 1:1 model; Fc4, first of two runs (run label misplaced in print)
Experimental: as §1, §2, §3

recombinant human βIG-H3 [8] = target: T1, recombinant human βIG-H3; test: SPR single cycle kinetics, mAb captured via anti-human IgG (Fc) on CM5, hβIG-H3 5-100 nM as analyte, 1:1 model; SCK1 Fc3
Experimental: as §1, §2, §3

recombinant human βIG-H3 [9] = target: T1, recombinant human βIG-H3; test: SPR single cycle kinetics, mAb captured via anti-human IgG (Fc) on CM5, hβIG-H3 5-100 nM as analyte, 1:1 model; SCK2 Fc3
Experimental: as §1, §2, §3

recombinant human βIG-H3 [10] = target: T1, recombinant human βIG-H3; test: direct ELISA on coated rhβIG-H3

| Binder | Kd (recombinant human βIG-H3 [2]) [nM] | koff (recombinant human βIG-H3 [2]) [s⁻¹] | kon (recombinant human βIG-H3 [2]) [M⁻¹ s⁻¹] | ELISA Titer (recombinant human βIG-H3 [3]) [µg/mL] | binding result (recombinant human βIG-H3 [10]) | further results |
| --- | --- | --- | --- | --- | --- | --- |
| B1 | 0.187 | 0.000247 | 1.32e+06 | 0.03 | – | Kd (recombinant human βIG-H3 [1]): 0.0627 nM; koff (recombinant human βIG-H3 [1]): 0.00013 s⁻¹; kon (recombinant human βIG-H3 [1]): 2.06e+06 M⁻¹ s⁻¹; Kd (recombinant human βIG-H3 [4]): 0.0854 nM; koff (recombinant human βIG-H3 [4]): 0.00016 s⁻¹; kon (recombinant human βIG-H3 [4]): 1.87e+06 M⁻¹ s⁻¹ |
| B2 | – | – | – | – | – | Kd (recombinant human βIG-H3 [5]): 0.411 nM; koff (recombinant human βIG-H3 [5]): 0.000234 s⁻¹; kon (recombinant human βIG-H3 [5]): 572000 M⁻¹ s⁻¹ |
| B3 | 0.535 | 0.000659 | 1.23e+06 | 0.047 | – | – |
| B4 | 0.476 | 0.000583 | 1.23e+06 | 0.04 | – | – |
| B5 | 0.49 | 0.000707 | 1.45e+06 | 0.046 | – | – |
| B6 | 0.482 | 0.000726 | 1.5e+06 | 0.041 | – | – |
| B7 | – | – | – | 0.0036 | – | Kd (recombinant human βIG-H3 [6]): 0.171 nM; koff (recombinant human βIG-H3 [6]): 0.000478 s⁻¹; kon (recombinant human βIG-H3 [6]): 2.79e+06 M⁻¹ s⁻¹; Kd (recombinant human βIG-H3 [7]): 0.12 nM; koff (recombinant human βIG-H3 [7]): 0.000559 s⁻¹; kon (recombinant human βIG-H3 [7]): 4.66e+06 M⁻¹ s⁻¹ |
| B8 | – | – | – | 0.0038 | – | Kd (recombinant human βIG-H3 [8]): 0.124 nM; koff (recombinant human βIG-H3 [8]): 0.000798 s⁻¹; kon (recombinant human βIG-H3 [8]): 6.46e+06 M⁻¹ s⁻¹; Kd (recombinant human βIG-H3 [9]): 0.169 nM; koff (recombinant human βIG-H3 [9]): 0.000659 s⁻¹; kon (recombinant human βIG-H3 [9]): 3.9e+06 M⁻¹ s⁻¹ |
| B9 | – | – | – | – | binds | – |
| B10 | – | – | – | – | binds | – |
| B11 | – | – | – | – | binds | – |
| B12 | – | – | – | – | binds | – |
| B13 | – | – | – | – | binds | – |
